Values of other authors, collected in PMC3486867.

Molecular target: Asp408 (UniProt position 408, GLLVDDAIVVV)
Test: chemical modification (inferred from the title of ref 54: site-directed mutagenesis and carbodiimide labeling)

Question: With “Multidrug transporter AcrB (not stated (Escherichia coli inferred))” as the substance, how does the pKa read?
Answer: 7.4
